Legend:
[1] = molecular target: cleaved, mature CDTb (from limited trypsinization of proCDTb) (Clostridioides difficile); assay: SEC; CDTb oligomerization assay: 500 μg proCDTb at 1 mg/mL, untreated or with trypsin 1:20 (wt/wt) at 37°C for 20 min, with buffer or 2-fold molar excess of Fab; Superdex 200 Increase 10/300 GL in 20 mM Tris pH 8, 100 mM NaCl, 6 mM CaCl2
[2] = molecular target: cleaved, mature CDTb (from limited trypsinization of proCDTb) (Clostridioides difficile); assay: negative-stain electron microscopy

“cleaved, mature CDTb (from limited trypsinization of proCDTb) (natural protein)” showed a percent of cleaved CDTb oligomerized [1] of 5% and a stoichiometry N [2] of 14.

Reference: PMC10127577
